Columns and labels:
[1] = target: T1, human FcγRI extracellular domain protein (human, UniProt P12314 16-292); assay: SPR (Biacore), N = 1
T1 construct: extracellular domain; also called hFcγRI

[2] = target: T2, human FcγRIIa (H131) extracellular domain protein (human, UniProt P12318 34-217); assay: SPR (Biacore), N = 1
T2 construct: extracellular domain; also called hFcγRIIa (H131); FcγRIIa 131H
T2 sequence (looked up): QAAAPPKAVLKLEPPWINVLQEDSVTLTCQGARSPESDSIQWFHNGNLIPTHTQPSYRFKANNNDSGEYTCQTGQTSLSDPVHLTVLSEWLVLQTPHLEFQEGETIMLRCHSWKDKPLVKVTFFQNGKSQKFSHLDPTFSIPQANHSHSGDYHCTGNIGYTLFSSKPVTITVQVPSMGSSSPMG

[3] = target: T3, human FcγRIIb extracellular domain protein (human, UniProt P31994 43-217); assay: SPR (Biacore), N = 1
T3 construct: extracellular domain; also called hFcγRIIb
T3 sequence (looked up): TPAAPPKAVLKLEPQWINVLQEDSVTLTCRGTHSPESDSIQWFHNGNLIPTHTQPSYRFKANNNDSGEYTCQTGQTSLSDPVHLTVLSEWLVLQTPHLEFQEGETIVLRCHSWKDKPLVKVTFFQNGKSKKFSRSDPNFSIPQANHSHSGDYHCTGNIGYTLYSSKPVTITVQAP

[4] = target: T4, human FcγRIIIa (V158) extracellular domain protein (human, UniProt P08637 17-208); assay: SPR (Biacore), N = 1
T4 construct: extracellular domain; also called hFcγRIIIa (V158); FcγRIIIa158V
T4 sequence (P08637 17-208 F176V limits assumed): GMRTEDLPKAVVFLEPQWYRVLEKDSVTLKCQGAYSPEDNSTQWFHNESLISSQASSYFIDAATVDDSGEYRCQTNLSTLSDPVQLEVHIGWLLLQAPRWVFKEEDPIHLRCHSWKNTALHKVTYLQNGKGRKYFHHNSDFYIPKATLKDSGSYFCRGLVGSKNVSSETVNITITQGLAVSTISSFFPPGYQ

cynomolgus α4β7 integrin [5] = target: T5, cynomolgus α4β7 integrin (cynomolgus monkey); assay: FACS, cyno CD8+ naïve
T5 construct: whole, on cells; On CHOK1-cα4β7 cells or cynomolgus blood lymphocytes; also called cα4β7; cyno α4β7

cynomolgus α4β7 integrin [6] = target: T5, cynomolgus α4β7 integrin; assay: FACS, cyno CD4+ total
rabbit α4β7 integrin = target: T6, rabbit α4β7 integrin (rabbit); assay: FACS, rabbit CD4+ T cells
T6 construct: whole, on cells; On rabbit PBMCs

cynomolgus α4β7 integrin [7] = target: T5, cynomolgus α4β7 integrin; assay: FACS, cynomolgus lymphocytes
cynomolgus α4β7 integrin [8] = target: T5, cynomolgus α4β7 integrin; assay: FACS, cyno CD8+ naïve T cells
cynomolgus α4β7 integrin [9] = target: T5, cynomolgus α4β7 integrin; assay: FACS, cyno total CD8+ T cells
cynomolgus α4β7 integrin [10] = target: T5, cynomolgus α4β7 integrin; assay: FACS, cyno CD8+ memory T cells
[11] = target: T7, cynomolgus FcγRI extracellular domain protein (cynomolgus monkey); assay: SPR (Biacore T200), FcγR captured, antibody injected
T7 construct: extracellular domain; also called Cyno FcγRI

[12] = target: T8, cynomolgus FcγRIII extracellular domain protein (cynomolgus monkey, UniProt Q8SPW2 17-208); assay: as above
T8 construct: extracellular domain; also called Cyno FcγRIII
T8 sequence (Q8SPW2 17-208): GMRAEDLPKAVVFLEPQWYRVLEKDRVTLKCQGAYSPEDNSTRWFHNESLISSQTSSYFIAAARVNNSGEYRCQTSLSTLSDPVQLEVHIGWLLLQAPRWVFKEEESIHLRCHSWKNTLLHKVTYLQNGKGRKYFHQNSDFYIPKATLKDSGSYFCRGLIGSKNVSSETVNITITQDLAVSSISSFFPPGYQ

human FcRn ECD protein = target: T9, human FcRn ECD protein (human, UniProt P55899 24-297; P61769 21-119); assay: SPR (Biacore), antibody immobilised, FcRn injected, pH 6.0, steady state; pH 6.0
T9 construct: extracellular domain
T9 sequence (P55899 24-297 limits assumed, chain 1 of 2): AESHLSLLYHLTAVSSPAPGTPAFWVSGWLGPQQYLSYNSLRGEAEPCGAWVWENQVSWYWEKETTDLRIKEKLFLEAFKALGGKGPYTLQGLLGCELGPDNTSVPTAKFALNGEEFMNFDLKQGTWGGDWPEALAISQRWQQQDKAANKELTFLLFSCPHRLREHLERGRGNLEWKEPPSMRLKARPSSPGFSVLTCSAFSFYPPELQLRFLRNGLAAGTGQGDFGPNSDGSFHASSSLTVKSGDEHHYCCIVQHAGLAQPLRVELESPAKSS
T9 sequence (P61769 21-119 limits assumed, chain 2 of 2): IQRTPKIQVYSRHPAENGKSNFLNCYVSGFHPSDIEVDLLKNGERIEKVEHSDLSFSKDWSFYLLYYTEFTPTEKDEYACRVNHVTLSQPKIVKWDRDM

[13] = target: T10, cynomolgus FcRn ECD protein (cynomolgus monkey, UniProt Q8SPV9 24-297; Q8SPW0 21-119); assay: as above
T10 construct: extracellular domain
T10 sequence (Q8SPV9 24-297 limits assumed, chain 1 of 2): as the sequence (P55899 24-297 limits assumed, chain 1 of 2) above, with N39D, E44Q, G99S, S189G, S190N, L217M, S269T counted along it
T10 sequence (Q8SPW0 21-119 limits assumed, chain 2 of 2): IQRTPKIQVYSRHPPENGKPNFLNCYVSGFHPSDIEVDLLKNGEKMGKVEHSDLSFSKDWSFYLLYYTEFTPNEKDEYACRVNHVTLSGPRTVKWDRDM

[14] = target: T11, human FcγRI on CHO-K1 cells (human, UniProt P12314 16-374); assay: flow cytometry on CHO-K1 cells expressing the receptor (curve FcgRI), monomeric antibody, F(ab')2 anti-human IgG AF647; N=1
T11 construct: whole, on cells
T11 sequence (P12314 16-374): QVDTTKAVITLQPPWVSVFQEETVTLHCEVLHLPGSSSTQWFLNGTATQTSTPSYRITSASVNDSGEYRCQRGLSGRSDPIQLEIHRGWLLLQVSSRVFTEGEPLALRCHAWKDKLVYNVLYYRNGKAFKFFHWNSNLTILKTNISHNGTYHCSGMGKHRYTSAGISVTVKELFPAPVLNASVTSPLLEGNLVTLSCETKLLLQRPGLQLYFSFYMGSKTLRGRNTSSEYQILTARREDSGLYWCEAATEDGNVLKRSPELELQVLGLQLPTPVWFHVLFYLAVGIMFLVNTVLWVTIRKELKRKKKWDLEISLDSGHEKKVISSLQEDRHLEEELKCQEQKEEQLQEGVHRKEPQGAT

FcgRIIA H131 = target: T12, FcgRIIA H131 (human, UniProt P12318); assay: flow cytometry on CHO-K1 cells expressing the receptor (curve FcgRIIA H131), monomeric antibody, F(ab')2 anti-human IgG AF647; N=1
T12 construct: cell surface, on engineered CHO-K1 cells; the list of molecules has only an FcγRIIa on CHO-K1 cells without the variant; also called human FcγRIIa (H131) on CHO-K1 cells
T12 sequence (receptor chain, looked up): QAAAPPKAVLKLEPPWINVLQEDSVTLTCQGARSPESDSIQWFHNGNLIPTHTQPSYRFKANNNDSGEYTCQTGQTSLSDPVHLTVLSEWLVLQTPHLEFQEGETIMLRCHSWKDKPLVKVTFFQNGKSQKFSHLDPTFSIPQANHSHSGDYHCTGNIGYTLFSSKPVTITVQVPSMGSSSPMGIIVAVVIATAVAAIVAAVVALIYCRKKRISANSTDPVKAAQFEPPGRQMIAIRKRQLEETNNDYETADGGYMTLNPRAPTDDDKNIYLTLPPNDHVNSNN

FcgRIIA R131 = target: T13, FcgRIIA R131 (human, UniProt P12318); assay: flow cytometry on CHO-K1 cells expressing the receptor (curve FcgRIIA R131), monomeric antibody, F(ab')2 anti-human IgG AF647; N=1
T13 construct: cell surface, on engineered CHO-K1 cells; the list of molecules has only an FcγRIIa on CHO-K1 cells without the variant; also called human FcγRIIa (R131) on CHO-K1 cells
T13 sequence (receptor chain, looked up): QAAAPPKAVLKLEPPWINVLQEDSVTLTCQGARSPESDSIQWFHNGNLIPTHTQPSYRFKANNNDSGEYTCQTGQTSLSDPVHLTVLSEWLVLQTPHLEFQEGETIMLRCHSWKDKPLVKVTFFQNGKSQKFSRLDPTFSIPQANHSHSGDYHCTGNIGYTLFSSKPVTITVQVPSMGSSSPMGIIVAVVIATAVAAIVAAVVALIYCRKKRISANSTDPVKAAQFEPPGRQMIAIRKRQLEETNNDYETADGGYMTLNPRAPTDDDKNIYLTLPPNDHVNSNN

[15] = target: T14, human FcγRIIIa (F176) on CHO-K1 cells (human, UniProt P08637 17-254); assay: flow cytometry on CHO-K1 cells expressing the receptor (curve FcgRIIIA F176), monomeric antibody, F(ab')2 anti-human IgG AF647; N=1
T14 construct: whole, on cells; also called F158
T14 sequence (P08637 17-254): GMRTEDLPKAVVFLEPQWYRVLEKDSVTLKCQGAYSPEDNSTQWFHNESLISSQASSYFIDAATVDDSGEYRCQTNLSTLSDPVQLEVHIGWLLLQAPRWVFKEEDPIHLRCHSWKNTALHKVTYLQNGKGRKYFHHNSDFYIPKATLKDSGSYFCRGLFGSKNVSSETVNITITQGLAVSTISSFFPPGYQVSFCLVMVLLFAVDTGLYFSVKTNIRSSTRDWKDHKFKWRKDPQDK

T1 sequence (P12314 16-292): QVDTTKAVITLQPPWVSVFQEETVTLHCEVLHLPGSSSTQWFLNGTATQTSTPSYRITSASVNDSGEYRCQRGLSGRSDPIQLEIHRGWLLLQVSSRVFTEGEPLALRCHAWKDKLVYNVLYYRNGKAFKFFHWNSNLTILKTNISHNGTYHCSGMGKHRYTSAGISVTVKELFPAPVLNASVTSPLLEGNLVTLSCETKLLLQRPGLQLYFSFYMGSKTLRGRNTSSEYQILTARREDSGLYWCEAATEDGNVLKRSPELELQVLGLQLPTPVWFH

B1: Ab-h1.9d-WT (antibody, human IgG1, kappa)
heavy: not shown
light: DIQMTQSPSSLSASVGDRVTITCHASQDISDNIGWLQQKPGKSFKLLIYHGTNLEDGVPSRFSGSGSGTDYTLTISSLQPEDFATYYCVQYAQFPWTFGGGTKVEIKRTVAAPSVFIFPPSDEQLKSGTASVVCLLNNFYPREAKVQWKVDNALQSGNSQESVTEQDSKDSTYSLSSTLTLSKADYEKHKVYACEVTHQGLSSPVTKSFNRGEC
notes: IgG1/kappa with D356E and L358M (EU); also called Anti-human α4β7 (AC-166667) hu IgG1/k WT mAb
Kd [1]: 7 nM
Kd [2]: 4000 nM
Kd [3]: 12000 nM
Kd [4]: 100 nM
EC50 (cynomolgus α4β7 integrin [5]): 0.042 nM
EC50 (cynomolgus α4β7 integrin [6]): 0.03 nM
EC50 (rabbit α4β7 integrin): 0.097 nM
EC50 (cynomolgus α4β7 integrin [7]): 0.062 nM
EC50 (cynomolgus α4β7 integrin [8]): 0.042 nM
EC50 (cynomolgus α4β7 integrin [9]): 0.035 nM
EC50 (cynomolgus α4β7 integrin [10]): 0.036 nM
Kd [11]: 12 nM
Kd [12]: 280 nM
Kd (human FcRn ECD protein): 3300 nM
Kd [13]: 2200 nM
binding result [14]: binds
binding result (FcgRIIA H131): binds
binding result (FcgRIIA R131): binds
binding result [15]: binds

From patent publication US20260062488A1 (AbbVie / Abbott, published 2026)
